Measurements from patent US20260022160A1 (AFFYXELL THERAPEUTICS, published 2026).
Values joined by “and” are separate entries in the source; they are usually repeats but may differ in a detail not shown here. Identical values can stand only once.

T1: human Mega CD40L recombinant protein (Enzo Lifesciences) (human, UniProt P29965 116-261)
T1 sequence (looked up): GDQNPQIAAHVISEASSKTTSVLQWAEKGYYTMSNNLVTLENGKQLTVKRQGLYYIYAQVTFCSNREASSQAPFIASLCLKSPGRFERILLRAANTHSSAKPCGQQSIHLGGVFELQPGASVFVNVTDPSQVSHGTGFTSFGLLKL

T2: recombinant human CD40L (R&D Systems, 6420-CL-025/CF) (human, UniProt P29965 108-261, limits assumed)
T2 sequence (looked up): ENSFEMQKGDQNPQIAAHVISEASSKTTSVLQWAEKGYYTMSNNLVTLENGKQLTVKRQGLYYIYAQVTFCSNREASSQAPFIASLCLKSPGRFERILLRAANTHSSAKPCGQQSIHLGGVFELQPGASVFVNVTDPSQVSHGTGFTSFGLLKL

T3: human CD40L (human, UniProt P29965 113-261, limits assumed)
T3 sequence (looked up): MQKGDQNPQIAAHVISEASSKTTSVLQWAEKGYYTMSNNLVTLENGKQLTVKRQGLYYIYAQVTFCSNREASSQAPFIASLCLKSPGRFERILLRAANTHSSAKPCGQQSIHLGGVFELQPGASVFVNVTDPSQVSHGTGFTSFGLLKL


What was measured:
[1] = biological target: T1, human Mega CD40L recombinant protein …; assay: cell-based or functional assay
[2] = biological target: T1, human Mega CD40L recombinant protein …; assay: cell-based or functional assay; remark: listed apart in the source
[3] = biological target: T2, recombinant human CD40L (R&D Systems, …); assay: binding ELISA, plate-coated recombinant human CD40L, concentrated culture fluid; first-named of the two gene-introduced cell lines (two promoters); promoter not told
Method: (§1) Each cell line was inoculated into a T175 flask at a cell density of 4.0×10³ cells/cm² using a culture medium. After culture at 37° C. and 5% CO₂ for 18 to 24 hours, the culture medium was thoroughly replaced with a fresh culture medium every 2 days, followed by culture. After culture for 3 days, the cells were harvested, and 7.0×10⁶ cells were inoculated into a T175 flask, followed by culture at 37° C. and 5% CO₂ for 18 to 24 hours. The culture medium was thoroughly removed, and the remaining medium was completely removed through washing with 10 mL of MEM alpha. 30 mL of an MEM alpha medium was added to a T175 flask, followed by culture for 48 hours. After 48 hours, all of the cell culture fluid was harvested and then centrifuged to remove residual cells and impurities. The cell culture fluid was transferred to a Vivaspin 20 and centrifuged, the culture fluid was concentrated, and the stefin A protein variant was quantified through sandwich ELISA (LSBio, LS-F4620). […] The unbound stefin A protein variant was removed through washing, after which the extent of binding between the stefin A protein variant and CD40L was detected based on a difference in absorbance resulting from reaction with a TMB substrate.

[4] = biological target: T2, recombinant human CD40L (R&D Systems, …); assay: binding ELISA, plate-coated recombinant human CD40L, concentrated culture fluid; second-named of the two gene-introduced cell lines (two promoters); promoter not told
Method: as §1

human CD40L [5] = biological target: T3, human CD40L; assay: cell-based or functional assay
human CD40L [6] = biological target: T3, human CD40L; assay: ELISA on plate-coated hCD40L, no HSA, detection with anti-cystatin antibody, OD 450-630 nm
Method: After a last washing step, TMB was added for the development of the experiment and the plates were read at 450 nm. The EC50 was then calculated using the interpolated non-linear four-parameters standard curve (FIG. 12C).

human serum albumin = biological target: T4, human serum albumin (human, UniProt P02768 25-609); assay: bridging ELISA: binder captured on plate-coated hCD40L, HSA 10 uM, bound HSA detected with anti-HSA antibody
T4 construct: also called HSA
T4 sequence (P02768 25-609): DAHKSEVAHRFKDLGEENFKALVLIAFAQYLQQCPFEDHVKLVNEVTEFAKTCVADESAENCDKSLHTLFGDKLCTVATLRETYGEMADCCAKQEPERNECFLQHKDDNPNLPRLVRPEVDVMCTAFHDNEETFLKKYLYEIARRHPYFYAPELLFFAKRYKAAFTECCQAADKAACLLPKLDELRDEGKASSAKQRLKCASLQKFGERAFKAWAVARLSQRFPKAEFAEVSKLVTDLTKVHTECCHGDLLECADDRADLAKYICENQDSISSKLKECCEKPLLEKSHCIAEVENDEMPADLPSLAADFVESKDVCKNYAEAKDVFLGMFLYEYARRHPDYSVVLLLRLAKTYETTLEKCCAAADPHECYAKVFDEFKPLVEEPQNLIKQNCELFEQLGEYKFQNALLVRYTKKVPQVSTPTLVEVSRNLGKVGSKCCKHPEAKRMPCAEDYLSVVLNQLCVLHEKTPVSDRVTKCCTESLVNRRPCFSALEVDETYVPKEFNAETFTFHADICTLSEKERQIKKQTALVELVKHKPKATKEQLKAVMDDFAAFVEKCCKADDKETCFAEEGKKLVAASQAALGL
Method: (§2) After saturation with 5% casein/PBS buffer, the plates were washed and a dilution of Stefin A protein variant or controls was incubated with HSA at a final concentration of 10 μM for 90 minutes. Plates were then washed, and a […], anti-HSA (HRP-conjugated) (Abcam), was added for 90 minutes. After a last washing step, TMB was added for the development of the experiment and the plates were read at 450 nm. The EC50 was then calculated using the interpolated non-linear four-parameters standard curve (FIG. 12C).

human CD40L [7] = biological target: T3, human CD40L; assay: bridging ELISA: capture on plate-coated hCD40L, HSA 10 uM, detection with anti-HSA antibody, OD 450-630 nm
Method: as §2

human CD40L [8] = biological target: T3, human CD40L; assay: ELISA on plate-coated hCD40L in the presence of HSA (10 uM), detection with anti-cystatin antibody, OD 450-630 nm
human CD40L [9] = biological target: T3, human CD40L; assay: competitive ELISA: hCD40L (1 nM) premixed with the binder and added to plate-coated rhCD40 Fc; bound hCD40L detected with biotinylated anti-hCD40L polyclonal antibody
Method: To evaluate the avidity of the different formats, a CD40L competitive ELISA was performed. Briefly, the plates were coated with rhCD40 Fc at 1 μg/ml and incubated overnight at 4° C. The plates were washed twice with 150 μl of washing buffer (PBS, Tween 20 0.1%) with a plate washer and saturated with Casein 5% (Sigma) in PBS for 90 minutes at room temperature (25±1° C.). […] The resulting solution was then mixed and added to the plates. The plates were washed 3 times as described previously. […] The plates were incubated for 90 minutes at room temperature (25±1° C.). The plates were then washed. PolyHRP-Streptavidin was then diluted in dilution buffer and added to the plates. The plates were incubated an additional 90 minutes at room temperature (25±1° C.). Plates were washed 3 times as described previously and the substrate (TMB, Pierce Thermo-Scientific) was added in the plate for 10 minutes. The reaction was stopped using an acidic solution and the plates were read at 450-630 nm and the resulting percent inhibition was calculated.

IC50, HEK-Blue CD40L cell assay [1]	IC50 (read off the curve) [2]	EC50 [3]	EC50 [4]	IC50 (read off the curve) (human CD40L [5])	EC50 (human CD40L [6])	binding result (human serum albumin)	EC50 (human CD40L [7])	EC50 (human CD40L [8])	IC50 (read off the curve) (human CD40L [9])	Binder
0.303 nM and 0.4 nM	~0.3 nM and ~0.4 nM	0.0039 nM	0.0053 nM	–	–	–	–	–	–	XT75 anti-CD40L stefin A protein variant secreted by gene-introduced MSC (eMSC) (designed binder, also called eMSC (XT75, w/EF1A); eMSC (XT75, w/CBh)) IPGGLSEAKPATPEIQEIVDKVKPQLEEKTGETYGKLEAVQYKTQVVHYYVHYNDQGTNYYIKVRAGDNKYMHLKVFKSLWGENLFAKWEDLVLTGYQVDKNKDDELTGFAEAAAKEAAAKEAAAKEAAAKEAAAKEAAAKMIPGGLSEAKPATPEIQEIVDKVKPQLEEKTGETYGKLEAVQYKTQVVHYYVHYNDQGTNYYIKVRAGDNKYMHLKVFKSLWGENLFAKWEDLVLTGYQVDKNKDDELTGFAEAAAKEAAAKEAAAKEAAAKEAAAKEAAAKMIPGGLSEAKPATPEIQEIVDKVKPQLEEKTGETYGKLEAVQYKTQVVHYYVHYNDQGTNYYIKVRAGDNKYMHLKVFKSLWGENLFAKWEDLVLTGYQVDKNKDDELTGFAEAAAKEAAAKEAAAKEAAAKEAAAKEAAAKMIPRGLSEAKPATPEIQEIVDKVKPQLEEKTGETYGKLEAVQYKTQVLANFFQRRWPGSTNYYIKVRAGDNKYMHLKVFNGPWKFRNTDRGADRVLTGYQVDKNKDDELTGF
–	–	–	–	~8 nM	0.02 nM	binds	0.41 nM	0.04 nM	~4 nM	clone-230 XT75 (trimer with a rigid linker and an HSA binding stefin A protein variant) (designed binder, also called AFX01-230 XT75) IPGGLSEAKPATPEIQEIVDKVKPQLEEKTGETYGKLEAVQYKTQVVHYYVHYNDQGTNYYIKVRAGDNKYMHLKVFKSLWGENLFAKWEDLVLTGYQVDKNKDDELTGFAEAAAKEAAAKEAAAKEAAAKEAAAKEAAAKMIPGGLSEAKPATPEIQEIVDKVKPQLEEKTGETYGKLEAVQYKTQVVHYYVHYNDQGTNYYIKVRAGDNKYMHLKVFKSLWGENLFAKWEDLVLTGYQVDKNKDDELTGFAEAAAKEAAAKEAAAKEAAAKEAAAKEAAAKMIPGGLSEAKPATPEIQEIVDKVKPQLEEKTGETYGKLEAVQYKTQVVHYYVHYNDQGTNYYIKVRAGDNKYMHLKVFKSLWGENLFAKWEDLVLTGYQVDKNKDDELTGFAEAAAKEAAAKEAAAKEAAAKEAAAKEAAAKMIPRGLSEAKPATPEIQEIVDKVKPQLEEKTGETYGKLEAVQYKTQVLANFFQRRWPGSTNYYIKVRAGDNKYMHLKVFNGPWKFRNTDRGADRVLTGYQVDKNKDDELTGF
